Data published in patent US20240368233A1 (University of Washington, published 2024).

B1: 274B53 (designed binder)
chain: NTHFIVVHGSEDAAQLAEELVREISKKEGTEVRFEKKDGLLSIEVKNLSEERQREIQKALQLVQDVANAERVVRERPGSNLAKKALEIILRAAEELAKLDLKASLKAAVRAAEKVVREQPGSNLAKKALEIILRAAEELAKLPDPEALKEAVKAAEKVVREQPGSELAKKALEIIERAAEELKKSPDPEAQKEAKKAEQKVREESGSHHWGSGLNDIFEAQKIEWHEGSHHHHHH
notes: also called LHD274B DHR53 stop
B2: DFA-1 (designed binder)
chain: TTNFHLINGSEEARQLIEKAVRAISKKEGTEVHFEKSDGTLEIRVKNLHEKREREIKKVIELILEVAAAERIVRERPGSNLAKKALEIILRAAEELAKADVDAALEAAVRAAEKVVREQPGSNLAKKALEIILRAAEELAKLPDPEALKEAVKAAEKVVREQPGSNLAKKALEIILRAAAALANLPDPESRKEADKAADKVRREQPGSELAVVAAIISAVARMGVKMELHPSGNEVKVVIKGLHIKQQRQLYRDVREAAKKAGVEVEIEVEGDTVTIVVRGGSHHWGSGSHHHHHH
notes: Bivalent connector
B3: DFB-1 (designed binder)
chain: NTHFIVVHGSEDAAQLAEELVREISKKEGTEVRFEKKDGLLSIEVKNLSEERQREIQKALQLVQDVANAERVVRERPGSNLAKKALEIILRAAEELAKLDLKASLKAAVRAAEKVVREQPGSNLAKKALEIILRAAEELAKLPDPEALKEAVKAAEKVVREQPGSNLAKKALEIILRAAAALANLPDPESRKEADKAADKVRREQPGSELAVVAAIISAVARMGVKMELHPSGNEVKVVIKGLHIKQQRQLYRDVREAAKKAGVEVEIEVEGDTVTIVVRGGSHHWGSGSHHHHHH
notes: Bivalent connector
B4: LHD101 chainB (designed binder)
chain: GRQEKVLKSIEETVRKMGVTMETHRSGNEVKVVIKGLHESQQEQLLEDVLRTAEKQGVRVRIRFKGDTVTIVVRE
notes: also called LHD101B
B5: RingB (designed binder)
chain: GTWQWVLINISEEARQLIEKAVRAISKKEGTEVHFEKDDGVLHIRVKNLHEKRAREIHKVAKLILEVAAAERIVRERPGSNLAKKALEIILRAAEELAKADVDAALEAAVRAAEKVVREQPGSNLAKKAMEIILRAAEELAKLPDPEAQKEAAKAIARRVAAKVEELKRSGTSEDEIAEEVAREISEVIRTLKESGSSYEVICECVARIVAEIVEALKRSGTSEDEIAEIVARVISEVIRTLKESGSSYEVICECVARIVAEIVEALKRSGTSEEEIAEIVARVIQEVIRTLKESGSSYEVIRECLRRILEEVIEALKRSGVDSSEIVLIIIKIAVAVMGVTMEEHRSGNEVKVVIKGLHESQQEELLELVLRAAELAGVRVRIRFKGDTVTIVVRGGGSLEHHHHHH
notes: Component of the two-component C4 ring (four copies of each in the ring); also called 29A_53_4_101B
B6: LHD29 chainB (designed binder)
chain: SSIFLLSNVSEEARQRAEEYVRRISKKEGTEVRFEKDDGFLTIEVKNLSEERLREIAEYLWRVAV
notes: also called LHD29B; 29B
B7: RingA (designed binder)
chain: GSSIFLLSNVSEDAAQLAEELVREISKKEGTEVRFEKDDGFLTIEVKNLSEERLREIAKALQLIVDVANAERVVRERPGSNLAKKALEIILRAAEELAKLDLKASLKAAVRAALKVVAEQPGSNLAKKALEIIQRAAEELAKLPDPEAQKEAQLAAELVRAAELAKSPDPEDLKEAVRLAEEVVRERPGSNLAKAALAIILRAAEELAKLPDPEALKEAVKAAEKVVREQPGSNLAKKALEIILRAAAALANLPDPESRKEADKAADKVRREQPGSELAVVAAIISAVARMGVKMELHPSGNEVKVVIKGLHIKQQRQLYRDVREAAKKAGVEVEIEVEGDTVTIVVRGGGSWGLEHHHHHH
notes: Component of the two-component C4 ring (four copies of each in the ring); also called 29B_53_101A
B8: 275B (designed binder)
chain: GGSDVEWRYTNISEETQQKSAEFVLEIALRAGTGVTFTTRQGELQIQVHNLDELLAIAMLCYTLGLLLGDHRVQELAKRAVEAWERGDEERVKKLLIEALKRLVETAEEVVRERPGSNLAKLALEIILRAAEALARAEDPESLKEAVKAAEKVVREQPGSNLAKKALEIILRAAEELAKLPDPEALKEAVKAAEKVVREQPGSELAKKALEIIERAAEELKKSPDPEAQKEAKKAEQKVREERPGSGGSGSHHWGSGSHHHHHH
notes: also called LHD275 B; LHD275B

Experiments:
[1] = molecular target: the molecule itself; experiment: SEC titration (Superdex 200, normalised A230) of 274B53 and 29B53 alone; self-association
DFA-1 = molecular target: B2; experiment: SEC of mixed components; trimer listed in Table 6
Procedure: (§1) Complexes and individual components were diluted in 20 mM Tris pH 8.0, 100 mM NaCl. After o/n equilibration of the mixtures at room temperature or 4 degrees C., 500 ul of sample was injected onto a Superdex™ 200 10/300 increase GL (dimers, linear assemblies) or Superose™ 6 increase 10/300 GL (symmetric assemblies) (all columns from GE healthcare) using the absorbance at 230 nm or 473 nm (for GFP tagged components) as read-out. Dimers were mixed at monomer concentrations of 5 μM or higher. Trimer and ABCD tetramer mixtures contained 5 μM of the bivalent connector, and 7.5 μM of each terminal cap (lower absolute concentrations with the same ratios were used for some trimers). ABCA tetramer mixtures contained 5 μM per bivalent connector and 15 μM terminal cap. The hexamer mixture contained 3 μM of components C and D, 3.6 μM of B and E, and 4.4 μM of A and F. The branched assembly shown in FIG. 4A contained 2.8 μM of the trivalent connector and 4 μM of each cap. For the exchange experiment shown in FIG. 5A, the ABC trimer was preincubated at concentrations of 6 μM B and 9 μM each of A and C. C′ was then added to reach a final concentration of 2 μM B, 3 μM each of A and C, and 6 μM C′.

DFB-1 = molecular target: B3; experiment: SEC of mixed components; linear tetramer listed in Table 6, neighbours in the chain
Procedure: as §1

DFB0 = molecular target: T1, DFB0; experiment: as above
T1 construct: Bivalent connector
T1 chain: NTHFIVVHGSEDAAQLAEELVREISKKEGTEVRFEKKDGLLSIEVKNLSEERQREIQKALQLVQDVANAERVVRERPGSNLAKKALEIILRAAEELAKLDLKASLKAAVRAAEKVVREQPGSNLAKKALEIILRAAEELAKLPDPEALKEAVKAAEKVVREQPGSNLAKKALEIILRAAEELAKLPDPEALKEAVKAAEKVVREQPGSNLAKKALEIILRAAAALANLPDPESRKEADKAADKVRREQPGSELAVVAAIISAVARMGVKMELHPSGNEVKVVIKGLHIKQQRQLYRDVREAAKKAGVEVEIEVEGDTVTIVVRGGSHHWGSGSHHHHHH
Procedure: as §1

101B62 = molecular target: T2, 101B62; experiment: as above
T2 construct: also called LHD101B62
T2 chain: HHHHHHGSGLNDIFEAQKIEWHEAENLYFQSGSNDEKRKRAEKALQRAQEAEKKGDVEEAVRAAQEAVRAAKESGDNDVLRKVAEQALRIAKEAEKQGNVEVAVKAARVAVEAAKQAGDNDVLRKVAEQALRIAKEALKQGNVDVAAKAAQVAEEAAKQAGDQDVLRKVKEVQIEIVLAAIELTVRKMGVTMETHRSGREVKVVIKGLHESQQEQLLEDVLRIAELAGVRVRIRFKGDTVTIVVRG
Procedure: as §1

[2] = molecular target: the molecule itself; experiment: SEC titration (self-association)
[3] = molecular target: the molecule itself; experiment: SEC and native MS (self-association)
[4] = molecular target: the molecule itself; experiment: BLI conditions (self-association)
[5] = molecular target: the molecule itself; experiment: SEC titration of the protomer alone at several injection concentrations (Superdex 200, normalised A230); self-association
TF3 = molecular target: T3, TF3; experiment: SEC of the trivalent connector TF3, its three caps and the full mixture, with SDS-PAGE of the fractions; components named in the legend
T3 construct: Trivalent connector
T3 chain: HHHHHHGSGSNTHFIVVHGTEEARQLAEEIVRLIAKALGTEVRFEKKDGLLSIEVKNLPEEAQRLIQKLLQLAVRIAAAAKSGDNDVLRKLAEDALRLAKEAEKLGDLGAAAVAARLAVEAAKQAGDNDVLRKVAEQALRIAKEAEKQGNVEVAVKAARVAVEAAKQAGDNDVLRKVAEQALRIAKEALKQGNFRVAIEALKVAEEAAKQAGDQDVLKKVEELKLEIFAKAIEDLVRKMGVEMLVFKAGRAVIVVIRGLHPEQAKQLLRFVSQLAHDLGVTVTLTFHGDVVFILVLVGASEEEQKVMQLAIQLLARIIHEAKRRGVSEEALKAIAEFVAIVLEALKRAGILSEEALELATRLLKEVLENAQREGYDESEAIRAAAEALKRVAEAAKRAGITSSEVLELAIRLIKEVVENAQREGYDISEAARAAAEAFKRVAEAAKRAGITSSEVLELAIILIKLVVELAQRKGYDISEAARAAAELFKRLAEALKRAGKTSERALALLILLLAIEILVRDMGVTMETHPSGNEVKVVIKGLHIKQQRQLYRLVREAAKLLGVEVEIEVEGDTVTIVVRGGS

DF275A-1 = molecular target: T4, DF275A-1; experiment: SEC of partial and full mixtures followed at 473 nm (GFP on component C) and negative-stain EM; components as named for the hexamer in the legend of FIG. 16C and in Table 6
T4 construct: Bivalent connector
T4 chain: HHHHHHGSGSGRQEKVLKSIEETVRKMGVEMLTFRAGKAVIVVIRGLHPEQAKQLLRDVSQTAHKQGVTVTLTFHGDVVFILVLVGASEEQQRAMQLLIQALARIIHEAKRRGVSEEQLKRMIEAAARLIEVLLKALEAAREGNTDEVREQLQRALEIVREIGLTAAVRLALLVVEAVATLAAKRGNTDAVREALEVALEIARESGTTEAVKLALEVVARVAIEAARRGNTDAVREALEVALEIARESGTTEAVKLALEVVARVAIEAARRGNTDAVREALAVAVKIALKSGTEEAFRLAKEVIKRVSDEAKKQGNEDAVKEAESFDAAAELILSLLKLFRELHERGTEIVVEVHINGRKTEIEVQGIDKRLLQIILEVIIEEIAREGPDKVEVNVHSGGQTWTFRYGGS
Procedure: as §1
SEC peak fractions were concentrated prior to negative stain EM screening. Samples were then immediately diluted 5 to 150 times in TBS buffer (25 mM Tris pH 8.0, 25 mM NaCl) depending on sample concentration. […]

B1
binding result [1]: binds | binding result (DFA-1): binds

B2
binding result (DFB-1): binds | binding result (DFB0): binds

B3
binding result (101B62): binds

B4
binding result [2]: no binding (tested: above 100 µM)

B5
binding result [3]: no binding

B6
binding result [4]: binds

B7
binding result [3]: no binding

B8
binding result [5]: binds | binding result (TF3): binds | binding result (DF275A-1): binds
